From the nanobody polyreactivity screen of Harvey et al. (2022)

Test: yeast display, Sf9 membrane polyspecificity reagent, FACS + sequencing; frameworks hold sequencing errors
In short: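 Using colony PCR, genes from sorted yeast display clones were amplified, then sequenced on MiSeq at 2 × 250 and filtered by CDR length. The clones had been stained with 10% biotinylated, detergent-solubilized Sf9 membrane reagent for 1 hour at 4 °C and sorted by FACS into low and high (top ~1%) gates on anti-HA and streptavidin fluorescence. Polyreactivity labels come from the gate of origin.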

Row | Sequence | polyreactivity (PSR sort gate)
1 | QVQLVESGGGLVQAGGSLRLSCAASGRTFYIYTMGWYRQAPGKERELVAAISSSGDSTYYADSVKGRFTISRDNAKNTVFLQMNPLKPEDTAVYYCAAYPTYPDEYWGQGTQVTVSS | low polyreactivity
2 | QGQLVESGGGLVQAGGSLRLSSAASGRTFPSYAMGWYRQAPGKERELVAAITVSGGNTYYADSVKGRFTISRDNAKNTVYLQMNSLKAEDTAVYYCNTASYVSWYVHYYYWGLGTQVTVSS | low polyreactivity
3 | QVQHVESGGGLVQAGGSLRLSCAASGSTIYHYAMGWSRPAHGKERELVAAITTIGGRTYYADSVKGRFTISRDNAKNTVYLQMNSLKPEDTAVYYCAAGYRAWEPYGHYGYWGQGTQVTVSS | high polyreactivity
4 | QVQLVESGGGLVQAGGSLRLSCAASGFIFQRYAMGWYRQAPGKERELVAAISSSGGRTSYADSVKGRFTISRDNAKNTVYLQMNSLKPEDTAVYYCAAYPQGRWYVVWSGDYWGQGTQVTVSS | high polyreactivity
5 | QVQLQESGGGQVLAGGSLRLSCAASGSISAQAYMGWDRQAPGKEREHVAGINYGDNTNYADSVKGRFTISRDNEHRVSADEQPVSGRYRGVLLRGFLELFYYYIYWGQGTQVNVSS | high polyreactivity
6 | QVQLVESGGGLVQAGGSLRLSCAASGRIFKYYAMGWYRQSPGKERELVAAITSSGGSTYYADSVKGRFTISRDNAKNTVYLQMNRLKPEDTAVYYCAARGPKQLYPGYIYGYWGQGTQVTVSS | low polyreactivity
7 | QVQLVESGGGLVQAGGSLRLSCAASGRTFGYNAMGWYRQAPGKESELVAVISRGSRTYYADSVKGRFTISRDNAKNTVYLQMNSLKPEDTAVYYCAADYEYSGYGYWGQGTQVTVSS | high polyreactivity
8 | QVQLVESGGGLVQAGGSLRLSCAASGFTFYYNAMGWYRQAPGKERELVAAISTGGSTYYADSVKGRFTISRDNAKNTVYLQMNSLKPEDTAVYYCAAKTYGRRWSYYYWGQGTQVTVSS | high polyreactivity
9 | QVQLVESGGGLVQAGGSLRLSCAASGFTFGGYAMGWYRQAPGKERELVAAIRASGGSTYYADSVKGRFTISRDNAKNTVYLQMNSLKPEDTAVYYCNADIWYKTYDYWGQGTQVTVSS | low polyreactivity
10 | QVQLVESGGGLVQAGGSLRLSCAASGFTFSSDAMGWYRQAPGKERELVAAITWRGGTTYYADSVKGRFTISRDNAKNTVYLQMNSLKPEDTAVYYCAVDFKRVIRGSRWGDYWGQGTQVTVSS | high polyreactivity
11 | QVQLVESGGGLVQAGGSLRLSCAASGMGWYRQAPGKERELVAAITSTDGSTYYADSVKGRFTISRDNAKNTVYLQMNSLTPEDTAVYYCAVEPYLWPVFSDDDYWGQGTQVTVSS | low polyreactivity
12 | QVQLEESGGGLVQAGGSLRLTCAASGFTINEYAMGRYIQAPGKERELVAAISRGGTTYYADSVKGRFTISRDNAKNTVYLQMNSLKPEDTAVYYCAAPYFWNTEMDYWGQGTQVSVSS | low polyreactivity
13 | QVQLVESGGGLVQAGGSLRLSCAASGRTFQYNAMGWYRQAPGKERELVAVISRGGRTNYADSVKGRFTISRDNAKNTVYLQMNSLKPEDTAVYYCAADWYTPQGVGLDYWGQGTQVTVSS | low polyreactivity
14 | QVQLVESGGGIVQAGGSLRLSCAASGYIFKRYAMGWYRQAPWKERELVAAITGRGGSTYFADSVKGRFKISRDNAKNTVYLQMNSLKPEDTAVYYCAADGYVKGDYWGQGTQVTVSS | high polyreactivity
15 | QVQLVESGGGLVQAGGSLRLSCAASGRTLGDYDMGSYRQAPGKERELVAAINWSGGDTYYADSVKGRFTISRDNANNTVYLQMNSLKPEDSAVYYCNADYVYTRYDYWGQGTQVTVSS | high polyreactivity
16 | QVQLVESGGGLVQAGGSLRLSCAASGRIFATNAMGWSRPAPGTERELVAGISDGGGSTYYAASVKGRFTISRDNAKNTVYLQMNRLKPEDTEVYYCAARVLDWRGDIHDSEYWGQGTQVTVSS | low polyreactivity
17 | QVQLVESGGGLVQAGGSLRLSCAASGSISHLYTMGCYRQSPGKERELVAAIRYSGGRTDYADSVKGRFTISRDNAKNTVYLQMNSLKPEDTAVYYCAAGRSFRGSYWYEYWGQGTQVTVSS | high polyreactivity
18 | QVQLVESGGGLVQAGGSLRLSCAASGSIFGRYAMGWYRQAPGKERELVASITRGAGSTYYADSVKGRFTISRDNAKNTVYLQMNSLKPEDTAVYYCRLAPRYRKGGYWGQGTQVTVSS | high polyreactivity
19 | QVQLVESGGGLVQAGGSLRLSCAASGSIFVGYDMGWYRQAPGKARELVAAITRDGDTNYADSVKGRFTISRDNAKNTVYLQMNSLKPEDTAVYYCAADRWLYSWFFNYDQGDYWGQGTQVTVSS | low polyreactivity
20 | QVQLVESGGGLVQAGGSLRLSCAASGRIFGPYVMGWYIQAPGKERELVAAISTSGTSTYYADSVKGRFTISRDNANNTVYLQMNSLKPEDTAVFYFAKRSGARHRLMDYWGQGTQVTVSS | low polyreactivity
21 | QVQLVESGGGLVQAGGSLRLSCAASGRTFSTYVMGWYRQAPGKEREFVAAISTGGGSTYYADSVKGRFTISRDNAKNTVYLQMNSLKPEDTAVYYCAARLKWGWPTYDYWGQGTQVTVSS | high polyreactivity
